Data on two molecules can be found in patent publication US20220033505A1 (Janssen / Centocor, published 2022).

The test concerns the target HLA-G on NCI-H2009-b2m target cells (human, UniProt P17693 25-338). Description: cell-based or functional assay.

B1: HC3B125 (CD3B376-Fab-Fc x MHGB732-LH-scFv-Fc, no C-terminal Lys) (bispecific antibody, human IgG1, lambda, L234A L235A)
heavy: QVQLQQSGPRLVRPSQTLSLTCAISGDSVFNNNAAWSWIRQSPSRGLEWLGRTYYRSKWLYDYAVSVKSRITVNPDTSRNQFTLQLNSVTPEDTALYYCARGYSSSFDYWGQGTLVTVSSASTKGPSVFPLAPSSKSTSGGTAALGCLVKDYFPEPVTVSWNSGALTSGVHTFPAVLQSSGLYSLSSVVTVPSSSLGTQTYICNVNHKPSNTKVDKKVEPKSCDKTHTCPPCPAPEAAGGPSVFLFPPKPKDTLMISRTPEVTCVVVSVSHEDPEVKFNWYVDGVEVHNAKTKPREEQYNSTYRVVSVLTVLHQDWLNGKEYKCKVSNKALPAPIEKTISKAKGQPREPQVYVYPPSREEMTKNQVSLTCLVKGFYPSDIAVEWESNGQPENNYKTTPPVLDSDGSFALVSKLTVDKSRWQQGNVFSCSVMHEALHNHYTQKSLSLSPG
light: QSALTQPASVSGSPGQSITISCTGTSSNIGTYKFVSWYQQHPDKAPKVLLYEVSKRPSGVSSRFSGSKSGNTASLTISGLQAEDQADYHCVSYAGSGTLLFGGGTKLTVLGQPKAAPSVTLFPPSSEELQANKATLVCLISDFYPGAVTVAWKADSSPVKAGVETTTPSKQSNNKYAASSYLSLTPEQWKSHRSYSCQVTHEGSTVEKTVAPTECS
scFv: DIVMTQSPDSLAVSLGERATINCKSSQSVLHSSNNKNYLTWFQQKPGQPPKLLIYWASTRESGVPDRFSGSGSGTDFTLTISSLQAEDVAVYYCHQYYSTPPTFGQGTKVEIKGGSEGKSSGSGSESKSTGGSQVQLQQSGPGLVKPSQTLSLTCAISGDSVSSNSAAWNWIRQSPSRGLEWLGRTYYRSKWYNDYAVSVKSRITINPDTSKNQISLQLNSVTPEDTAVYYCAGDRRYGIVGLPFAYWGQGTLVTVSSEPKSSDKTHTCPPCPAPEAAGGPSVFLFPPKPKDTLMISRTPEVTCVVVSVSHEDPEVKFNWYVDGVEVHNAKTKPREEQYNSTYRVVSVLTVLHQDWLNGKEYKCKVSNKALPAPIEKTISKAKGQPREPQVYVLPPSREEMTKNQVSLLCLVKGFYPSDIAVEWESNGQPENNYLTWPPVLDSDGSFFLYSKLTVDKSRWQQGNVFSCSVMHEALHNHYTQKSLSLSPG
Regarding B1, the “Cytotoxicity, EC50 (M); T cell-mediated cytotoxicity against NCI-H2009-b2m cells, 72 hr, E:T 3:1” value was 5.65e-11 M.

B2: HC3B230 (CD3B219-LH-scFv-Fc x MHGB732-Fab-Fc) (bispecific antibody, human IgG1, kappa, L234A L235A)
scFv: QTVVTQEPSLTVSPGGTVTLTCRSSTGAVTTSNYANWVQQKPGQAPRGLIGGTNKRAPGTPARFSGSLLGGKAALTLSGVQPEDEAEYYCALWYSNLWVFGGGTKLTVLGGSEGKSSGSGSESKSTGGSEVQLVESGGGLVQPGGSLRLSCAASGFTFNTYAMNWVRQAPGKGLEWVARIRSKYNNYATYYAASVKGRFTISRDDSKNSLYLQMNSLKTEDTAVYYCVRHGNFGNSYVSWFAYWGQGTLVTVSSEPKSSDKTHTCPPCPAPEAAGGPSVFLFPPKPKDTLMISRTPEVTCVVVSVSHEDPEVKFNWYVDGVEVHNAKTKPREEQYNSTYRVVSVLTVLHQDWLNGKEYKCKVSNKALPAPIEKTISKAKGQPREPQVYVYPPSREEMTKNQVSLTCLVKGFYPSDIAVEWESNGQPENNYKTTPPVLDSDGSFALVSKLTVDKSRWQQGNVFSCSVMHEALHNHYTQKSLSLSPG
heavy: QVQLQQSGPGLVKPSQTLSLTCAISGDSVSSNSAAWNWIRQSPSRGLEWLGRTYYRSKWYNDYAVSVKSRITINPDTSKNQISLQLNSVTPEDTAVYYCAGDRRYGIVGLPFAYWGQGTLVTVSSASTKGPSVFPLAPSSKSTSGGTAALGCLVKDYFPEPVTVSWNSGALTSGVHTFPAVLQSSGLYSLSSVVTVPSSSLGTQTYICNVNHKPSNTKVDKKVEPKSCDKTHTCPPCPAPEAAGGPSVFLFPPKPKDTLMISRTPEVTCVVVSVSHEDPEVKFNWYVDGVEVHNAKTKPREEQYNSTYRVVSVLTVLHQDWLNGKEYKCKVSNKALPAPIEKTISKAKGQPREPQVYVLPPSREEMTKNQVSLLCLVKGFYPSDIAVEWESNGQPENNYLTWPPVLDSDGSFFLYSKLTVDKSRWQQGNVFSCSVMHEALHNHYTQKSLSLSPG
light: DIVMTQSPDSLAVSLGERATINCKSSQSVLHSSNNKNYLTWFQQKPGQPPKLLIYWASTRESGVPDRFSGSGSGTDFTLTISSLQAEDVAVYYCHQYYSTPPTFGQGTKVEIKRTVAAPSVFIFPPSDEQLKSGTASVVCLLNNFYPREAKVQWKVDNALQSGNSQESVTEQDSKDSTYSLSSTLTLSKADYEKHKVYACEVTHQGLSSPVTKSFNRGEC
In the case of B2, the “Cytotoxicity, EC50 (M); T cell-mediated cytotoxicity against NCI-H2009-b2m cells, 72 hr, E:T 3:1” value was found to be 9.92e-12 M.
